Experimental data as given in PMC7544213, “Weak binding to the A2RE RNA rigidifies hnRNPA2 RRMs and reduces liquid–liquid phase separation and aggregation”.

Key:
Details in all cases: protein: recombinant; tags: His tag removed by TEV; single strand
[1] = biological target: T1, hnRNPA2 1-189 (tandem RRMs) (UniProt P22626-2 1-189); experiment: ITC; 20 mM NaPi pH 6.75, 150 mM NaCl; N about 1; ITC: 20 mM NaPi pH 6.75, 150 mM NaCl, 25 C (also 20 mM KPi pH 6.75; 20 mM MES pH 6.7, 150 mM NaCl, 10 mM CaCl2); protein in syringe, RNA in cell
T1 sequence (P22626 other isoform, or with tags, fused parts or gaps): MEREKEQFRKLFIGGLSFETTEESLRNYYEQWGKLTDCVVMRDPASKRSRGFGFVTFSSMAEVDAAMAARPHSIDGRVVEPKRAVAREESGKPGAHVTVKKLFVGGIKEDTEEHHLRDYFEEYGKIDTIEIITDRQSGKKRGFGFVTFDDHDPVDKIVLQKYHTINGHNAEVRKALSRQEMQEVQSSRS

[2] = biological target: T1, hnRNPA2 1-189 (tandem RRMs); experiment: ITC; 7000 uM protein, 800 uM RNA; N 0.798; ITC: 20 mM NaPi pH 6.75, 150 mM NaCl, 25 C (also 20 mM KPi pH 6.75; 20 mM MES pH 6.7, 150 mM NaCl, 10 mM CaCl2); protein in syringe, RNA in cell
[3] = biological target: T1, hnRNPA2 1-189 (tandem RRMs); experiment: ITC; 20 mM KPi pH 6.75, no NaCl; N about 1; ITC: 20 mM NaPi pH 6.75, 150 mM NaCl, 25 C (also 20 mM KPi pH 6.75; 20 mM MES pH 6.7, 150 mM NaCl, 10 mM CaCl2); protein in syringe, RNA in cell
[4] = biological target: T1, hnRNPA2 1-189 (tandem RRMs); experiment: ITC; 7000 uM protein, 800 uM RNA; N 0.921; ITC: 20 mM NaPi pH 6.75, 150 mM NaCl, 25 C (also 20 mM KPi pH 6.75; 20 mM MES pH 6.7, 150 mM NaCl, 10 mM CaCl2); protein in syringe, RNA in cell
[5] = biological target: T1, hnRNPA2 1-189 (tandem RRMs); experiment: ITC; 4600 uM protein, 115 uM RNA; N 0.785; ITC: 20 mM NaPi pH 6.75, 150 mM NaCl, 25 C (also 20 mM KPi pH 6.75; 20 mM MES pH 6.7, 150 mM NaCl, 10 mM CaCl2); protein in syringe, RNA in cell
[6] = biological target: T1, hnRNPA2 1-189 (tandem RRMs); experiment: ITC; ITC: 20 mM NaPi pH 6.75, 150 mM NaCl, 25 C (also 20 mM KPi pH 6.75; 20 mM MES pH 6.7, 150 mM NaCl, 10 mM CaCl2); protein in syringe, RNA in cell

Binder | Kd [1] [µM] | Kd [2] [µM] | Kd [3] [µM] | Kd [4] [µM] | Kd [5] [µM] | Kd [6] [µM]
GCCAAGGAGCC (ssRNA) [rA2RE11] | ~52 | 143 ± 10 | ~35 | 139 ± 10 | 19.8 ± 0.4 | –
AAGGACUAGC (ssRNA) [Wu_10mer] | – | – | – | – | – | 0.228 ± 0.002
